Results as given in patent EP4361176A1.
Residue numbers refer to the chain shown, from its start.

Key:
[1] = target: human FcγRIIb extracellular domain with C-terminal His-tag (human) (UniProt P31994); experiment: SPR (Biacore T200), FcγRIIb, amount bound per unit captured antibody
[2] = target: human FcγRIIb extracellular domain with C-terminal His-tag (human) (UniProt P31994); experiment: SPR; binding amount / that of 04H1389-G1m/04L1615-k0MT
[3] = target: human FcγRIIb extracellular domain with C-terminal His-tag (human) (UniProt P31994); experiment: SPR; binding amount / that of 04H1637-G1m/04L1610-lam1
[4] = target: human FcγRIIb extracellular domain with C-terminal His-tag (human) (UniProt P31994); experiment: SPR (Biacore T200), FcγRIIb 1000 nM, amount bound per unit captured antibody
[5] = target: T1, hCTLA4-His-BAP (human); experiment: IgG ELISA, 2.5 ug/mL IgG, no AMP
T1 sequence (chain, biotin on the BAP-tag): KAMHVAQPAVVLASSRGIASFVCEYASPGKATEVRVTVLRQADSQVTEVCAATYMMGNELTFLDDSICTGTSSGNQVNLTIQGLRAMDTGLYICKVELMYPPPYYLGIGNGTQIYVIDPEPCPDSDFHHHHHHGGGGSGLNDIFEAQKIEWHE

[6] = target: T1, hCTLA4-His-BAP (human); experiment: IgG ELISA, 2.5 ug/mL IgG, 1 mM AMP; overflow set to 5.00
[7] = target: T1, hCTLA4-His-BAP (human); experiment: IgG ELISA, absorbance with / without AMP
[8] = target: T1, hCTLA4-His-BAP (human); experiment: IgG ELISA, 2.5 ug/mL IgG, 1 mM AMP

human FcγRIIb extracellular domain with C-terminal His-tag (human), sequence (P31994 43-217): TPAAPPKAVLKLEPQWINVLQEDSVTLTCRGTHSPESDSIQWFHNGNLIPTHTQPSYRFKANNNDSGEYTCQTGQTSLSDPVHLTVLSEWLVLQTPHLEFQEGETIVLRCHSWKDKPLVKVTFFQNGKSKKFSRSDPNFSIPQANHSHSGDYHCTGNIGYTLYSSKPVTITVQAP

B1: 04H1389-Ks473/04L1615-k0MT//04H1389-Hs482/04L1615-k0MT (antibody)
heavy 1: EVQLVESGGGLVKPGGSLRLSCAASGFTFSSKTMNWVRQAPGKGLEWVSSISTQSHYIYYAESVKGRFTISRDNAKNSLYLQMNSLRAEDTAVYYCARYGKREDMLWVFDYWGQGTLVTVSSASTKGPSVFPLAPSSKSTSGGTAALGCLVKDYFPEPVTVSWNSGALTSGVHTFPAVLQSSGLYSLSSVVTVPSSSLGTQTYICNVNHKPSNTKVDKRVEPKSCDKTHTCPPCPAPEFQWGPMVFLFPPKPKDVLMISRTPEVTCVVVDVSDEEPEVKFNWYVDGVEVHNAKTKPREEQYNATYRVVSVLPVLHQDWLNGKEYKCKVSNDALPAPIEKTISKAKGQPREPQVYTLPPSREEMTKNQVSLWCLVKGFYPSDIAVEWESNGQPENNYKTTPPVLDSDGSFFLYSKLTVDKSRWQQGNVFSCSVMHEALHAHTTRKELSLSP
heavy 2: EVQLVESGGGLVKPGGSLRLSCAASGFTFSSKTMNWVRQAPGKGLEWVSSISTQSHYIYYAESVKGRFTISRDNAKNSLYLQMNSLRAEDTAVYYCARYGKREDMLWVFDYWGQGTLVTVSSASTKGPSVFPLAPSSKSTSGGTAALGCLVKDYFPEPVTVSWNSGALTSGVHTFPAVLQSSGLYSLSSVVTVPSSSLGTQTYICNVNHKPSNTKVDKRVEPKSCDKTHTCPPCPAPELLAGPSVFLFPPKPKDVLMISRTPEVTCVVVDVSHEEPEVKFNWYVDGVEVHNAKTKPREEQYNATYRVVSVLPVLHQDWLNGKEYKCKVSNDALPKPDEETISKAKGQPREPQVYTLPPSREEMTKNQVSLSCAVKGFYPSDIAVEWESNGQPENNYKTTPPVLDSDGSFFLVSKLTVDKSRWQQGNVFSCSVMHEALHAHTTRKELSLSP
light: DIVMTQSPLSLPVTPGEPASISCQGPSTGVGDYNYVHWYQQKPGQAPRLLIYFTSKKPSGVPDRFSGSGSGTDFTLKISRVEAEDVGVYYCQTYAAPLGPMFGQGTKLEIKRTVAAPSVFIFPPSDEQLKSGTASVVCLLNNFYPREAKVQWKVDNALQSGNSQESVTEQDSKDSTYSLSSTLTLSKADYEKHKVYACEVTHQGLSSPVTKSFNRGEC
Binding amount [1]: 0.026
Relative binding amount [2]: 2.3

B2: 04H1389-Km481/04L1615-k0MT//04H1389-Hm498/04L1615-k0MT (antibody)
heavy 1: B1 heavy 1 with I337E, Y354C
heavy 2: B1 heavy 2 with K335A, D337E, E361C
light: B1 light
Binding amount [1]: 0.021
Relative binding amount [2]: 1.9

B3: 04H1654-KT462/04L1610-lam1//04H1656-HT445/04L1610-lam1 (antibody, human IgG1, lambda)
heavy 1: QVQLVESGGGVVQPGGSLRLSCAASGFTFSSKTMNWVRQAPGKGLEWVSSISTQSHYIYYARSVRGRFTISRDNAKNSLYLQMNSLRAEDTAVYYCARYGKREDMLWVFDYWGQGTLVTVSSASTKGPSVFPLAPSSKSTSGGTAALGCLVKDYFPEPVTVSWNSGALTSGVHTFPAVLQSSGLYSLSSVVTVPSSSLGTQTYICNVNHKPSNTKVDKRVEPKSCDKTHTCPPCPAPEFQWGPMVFLFPPKPKDVLMISRTPEVTCVVVDVSDEEPEVKFNWYVDGVEVHNAKTKPREEQYNATYRVVSVLPVLHQDWLNGKEYKCKVSNDALPAPIEKTISKAKGQPREPQVYTLPPSRKEMTKNQVSLTCLVKGFYPSDIAVEWESNGQPENNYKTTPPVLDSDGSFFLYSKLTVDKSRWQQGNVFSCSVMHEALHNHYTQKSLSLSP
heavy 2: QVQLVESGGGVVQPGGSLRLSCAASGFTFSSKTMNWVRQAPGKGLEWVSSISTQSHYIYYAESVRGRFTISRDNAKNSLYLQMNSLRAEDTAVYYCARYGAREDMLWVFDYWGQGTLVTVSSASTKGPSVFPLAPSSKSTSGGTAALGCLVKDYFPEPVTVSWNSGALTSGVHTFPAVLQSSGLYSLSSVVTVPSSSLGTQTYICNVNHKPSNTKVDKRVEPKSCDKTHTCPPCPAPELLAGPSVFLFPPKPKDVLMISRTPEVTCVVVDVSHEEPEVKFNWYVDGVEVHNAKTKPREEQYNATYRVVSVLPVLHQDWLNGKEYKCKVSNDALPKPDEETISKAKGQPREPQVYTLPPSREEMTKNQVSLTCLVKGFYPSDIAVEWESNGQPENNYKTTPPVLDSDGSFFLYSKLTVDKSRWQQGNVFSCSVMHEALHNHYTQESLSLSP
light: QSALTQPPSASGSPGQSVTISCEGPSTGVGDYNWVHWYQQHPGKAPKLMIYFTSKKPSGVPDRFSGSKSGNTASLTVSGLQAEDEADYYCQTYAAPLGPMFGGGTKLTVLGQPKAAPSVTLFPPSSEELQANKATLVCLISDFYPGAVTVAWKADSSPVKAGVETTTPSKQSNNKYAASSYLSLTPEQWKSHRSYSCQVTHEGSTVEKTVAPTECS
Relative binding amount [3]: 3.1
Binding amount [4]: 0.025

B4: 04H1654-KT473/04L1612-lam1//04H1656-HT482/04L1612-lam1 (antibody)
heavy 1: B3 heavy 1 with N439A, Y441T, Q443R, S445E
heavy 2: B3 heavy 2 with N439A, Y441T, Q443R, S445E
light: B3 light with N33T, W34Y
Relative binding amount [3]: 3.2
Binding amount [4]: 0.026

B5: 04H1654-KT481/04L1610-lam1//04H1656-HT498/04L1610-lam1 (antibody)
heavy 1: B3 heavy 1 with I337E, N439A, Y441T, Q443R, S445E
heavy 2: B3 heavy 2 with K335A, D337E, N439A, Y441T, Q443R, S445E
light: B3 light
Relative binding amount [3]: 2.7
Binding amount [4]: 0.022

B6: 04H1389-Km462/04L1615-k0MT//04H1389-Hm445/04L1615-k0MT (antibody, human IgG1, kappa)
heavy 1: B1 heavy 1 with Y354C, A439N, T441Y, R443Q, E445S
heavy 2: B1 heavy 2 with E361C, A439N, T441Y, R443Q, E445S
light: B1 light
Binding amount [1]: 0.029
Relative binding amount [2]: 2.6

B7: 04H1654-KT461/04L1610-lam1//04H1656-HT443/04L1610-lam1 (antibody, human IgG1, lambda)
heavy 1: B3 heavy 1 with I337E
heavy 2: B3 heavy 2 with K335A, D337E
light: B3 light
Relative binding amount [3]: 3.1
Binding amount [4]: 0.025

B8: 04H1389-Ks462/04L1615-k0MT//04H1389-Hs445/04L1615-k0MT (antibody, human IgG1, kappa)
heavy 1: B1 heavy 1 with A439N, T441Y, R443Q, E445S
heavy 2: B1 heavy 2 with A439N, T441Y, R443Q, E445S
light: B1 light
Binding amount [1]: 0.03
Relative binding amount [2]: 2.6

B9: 04H1389-Km461/04L1615-k0MT//04H1389-Hm443/04L1615-k0MT (antibody, human IgG1, kappa)
heavy 1: B1 heavy 1 with I337E, Y354C, A439N, T441Y, R443Q, E445S
heavy 2: B1 heavy 2 with K335A, D337E, E361C, A439N, T441Y, R443Q, E445S
light: B1 light
Binding amount [1]: 0.024
Relative binding amount [2]: 2.1

B10: 04H1389-Ks461/04L1615-k0MT//04H1389-Hs443/04L1615-k0MT (antibody, human IgG1, kappa)
heavy 1: B1 heavy 1 with I337E, A439N, T441Y, R443Q, E445S
heavy 2: B1 heavy 2 with K335A, D337E, A439N, T441Y, R443Q, E445S
light: B1 light
Binding amount [1]: 0.024
Relative binding amount [2]: 2.1

B11: 04H1654-KT461/04L1612-lam1//04H1656-HT443/04L1612-lam1 (antibody, human IgG1, lambda)
heavy 1: B3 heavy 1 with I337E
heavy 2: B3 heavy 2 with K335A, D337E
light: B3 light with N33T, W34Y
Relative binding amount [3]: 3.1
Binding amount [4]: 0.025

B12: 04H1654-KT462/04L1612-lam1//04H1656-HT445/04L1612-lam1 (antibody, human IgG1, lambda)
heavy 1: B3 heavy 1
heavy 2: B3 heavy 2
light: B3 light with N33T, W34Y
Relative binding amount [3]: 3.4
Binding amount [4]: 0.028

B13: 04H1654-KT473/04L1610-lam1//04H1656-HT482/04L1610-lam1 (antibody)
heavy 1: B3 heavy 1 with N439A, Y441T, Q443R, S445E
heavy 2: B3 heavy 2 with N439A, Y441T, Q443R, S445E
light: B3 light
Relative binding amount [3]: 3.2
Binding amount [4]: 0.026

B14: 04H1654-KT481/04L1612-lam1//04H1656-HT498/04L1612-lam1 (antibody)
heavy 1: B3 heavy 1 with I337E, N439A, Y441T, Q443R, S445E
heavy 2: B3 heavy 2 with K335A, D337E, N439A, Y441T, Q443R, S445E
light: B3 light with N33T, W34Y
Relative binding amount [3]: 2.8
Binding amount [4]: 0.022

B15: ABAM001 (antibody, human IgG1, V domains shown)
VH: EVQLVESGGDLVKPGGGLRLSCAASGFTFSSYTMHWVRQAPGKGLEWVSSISSRSRYKYYADSVKGRFTISRDNAKNSLYLQMNSLRAEDTAVYYCARFGIKNKRNWVLDYWGQGTLVTVSS
VL: QSALTQPPSASGSPGQTVTISCTGTSTDVGAYNYVSWYQQHPGKAPKLMIYQVSKRPSGVPDRFSGSKSGNTASLTVSGLQAEDEADYFCSLYTTRPQLAFGGGTKLTVL
450 nm Absorbance [5]: 3.46
450 nm Absorbance [6]: > 5
S/N [7]: > 1.45

B16: ABAM006 (antibody, human IgG1, V domains shown)
VH: B15 VH with S31T, R56G, Y57H, K58A, Y59H, I101R, N103K, N106L, L109F
VL: B15 VL with A31F, V53N, L92T, Y93N, T94R, T95A, R96A, P97R, Q98S, L99V
450 nm Absorbance [8]: 3
450 nm Absorbance [5]: 0.776
S/N [7]: 3.86

B17: ABAM005 (antibody, human IgG1, V domains shown)
VH: EVQLVESGGDLVKPGGGLRLSCAASGFTFSGYTMNWVRQAPGKGLEWVSSISSRSNYISYADSVKGRFTISRDNAKNSLYLQMNSLRAEDTAVYYCARYGALNHMLWVFDYWGQGTLVTVSS
VL: B15 VL with Q52S, V53T, T94R, T95Y, R96A, P97Q, Q98G, L99V, A100V
450 nm Absorbance [8]: 0.303
450 nm Absorbance [5]: 0.069
S/N [7]: 4.46

B18: ABAM002 (antibody, human IgG1, V domains shown)
VH: B17 VH with G31S, N56T, I58A, S59H, Y99F, A101G, L102R, N103G, M105L
VL: B15 VL with A31T, V53G, L92T, Y93V, T94S, T95G, R96D, P97F, Q98H, L99V
450 nm Absorbance [5]: 0.139
450 nm Absorbance [6]: > 5
S/N [7]: > 36

B19: ABAM003 (antibody, human IgG1, V domains shown)
VH: B15 VH with S31G, K58A, Y59S, K104H, R105L, L109F
VL: QSALTQPPSASGSPGQTVTISCTGTSSDVGDYNYVSWYQQHPGKAPKLMIYGVSKRPSGVPDRFSGSKSGNTASLTVSGLQAEDEADYFCSTVSTSHSPVFGGGTKLTVL
450 nm Absorbance [5]: 3.18
450 nm Absorbance [6]: > 5
S/N [7]: > 1.57
